One block for each substance: values may come before it.
Key:
Assay in all cases: cryo-EM structure
[1] = target: BMC-T^D2 shell protein of the Haliangium ochraceum (HO) BMC shell (Haliangium ochraceum) (UniProt D0LID6)
[2] = target: BMC-T^S1 shell protein of the Haliangium ochraceum (HO) BMC shell (Haliangium ochraceum)
[3] = target: BMC-T^D3 shell protein of the Haliangium ochraceum (HO) BMC shell (Haliangium ochraceum) (UniProt D0LV02)

stoichiometry N [1]: 6
Substance: BMC-T^D2 shell protein of the Haliangium ochraceum (HO) BMC shell (from UniProt D0LID6 1-212) (natural protein)

stoichiometry N [2]: 3
Substance: BMC-T^S1 shell protein of the Haliangium ochraceum (HO) BMC shell (natural protein)

stoichiometry N [3]: 6
Substance: BMC-T^D3 shell protein of the Haliangium ochraceum (HO) BMC shell (from UniProt D0LV02 1-206) (natural protein)

From paper PMC6506404
